In the assay the target is eRF1 (not stated (S. cerevisiae or human protein prepared)) (UniProt P12385).
Chain of UniProt P12385 (P12385 whole entry): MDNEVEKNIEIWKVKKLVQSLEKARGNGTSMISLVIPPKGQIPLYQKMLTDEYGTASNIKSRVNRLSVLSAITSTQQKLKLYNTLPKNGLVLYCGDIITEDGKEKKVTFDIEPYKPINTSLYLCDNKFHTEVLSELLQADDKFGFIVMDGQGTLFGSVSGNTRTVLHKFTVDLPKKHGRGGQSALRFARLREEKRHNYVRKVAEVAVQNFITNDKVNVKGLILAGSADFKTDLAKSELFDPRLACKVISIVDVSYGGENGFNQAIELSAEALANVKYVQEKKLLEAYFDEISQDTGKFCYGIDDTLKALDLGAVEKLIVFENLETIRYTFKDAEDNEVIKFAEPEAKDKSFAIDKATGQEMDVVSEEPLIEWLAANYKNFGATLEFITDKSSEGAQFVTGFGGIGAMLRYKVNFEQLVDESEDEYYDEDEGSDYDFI

Chain of eRF3 (P05453 whole entry): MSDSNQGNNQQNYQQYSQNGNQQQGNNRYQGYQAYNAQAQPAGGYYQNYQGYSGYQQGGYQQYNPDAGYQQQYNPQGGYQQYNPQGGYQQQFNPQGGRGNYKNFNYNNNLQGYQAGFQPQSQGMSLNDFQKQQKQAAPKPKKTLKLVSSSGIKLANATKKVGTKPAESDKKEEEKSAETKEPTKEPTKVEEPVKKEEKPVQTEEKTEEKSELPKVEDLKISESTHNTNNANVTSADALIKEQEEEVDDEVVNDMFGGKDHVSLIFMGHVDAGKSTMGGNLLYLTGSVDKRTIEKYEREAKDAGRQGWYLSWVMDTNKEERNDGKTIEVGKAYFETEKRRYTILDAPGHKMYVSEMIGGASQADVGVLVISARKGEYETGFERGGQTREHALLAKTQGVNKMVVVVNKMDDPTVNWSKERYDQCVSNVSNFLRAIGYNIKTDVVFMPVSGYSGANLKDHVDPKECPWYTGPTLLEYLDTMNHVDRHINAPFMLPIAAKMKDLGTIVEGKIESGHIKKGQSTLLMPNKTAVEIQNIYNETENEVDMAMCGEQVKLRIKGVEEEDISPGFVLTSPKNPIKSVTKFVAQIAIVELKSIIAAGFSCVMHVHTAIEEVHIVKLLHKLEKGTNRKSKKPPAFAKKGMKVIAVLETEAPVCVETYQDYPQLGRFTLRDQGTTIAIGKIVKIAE

Take “eRF3 (from UniProt P05453 1-685) (natural protein)”: the formation of RFC at constant 0.8 µM eRF3 with 0.01 to 0.4 µM eRF1 ('early experiments' of the termination assay; how it was determined is not told) was above 90%.
